Several values for one entry are separate records, joined by “and”; a condition that tells them apart may be missing. Equal values may be shown once.
Legend:
[1] = target: holo-CCP2 (C-terminal domain-like carotenoid protein 2 from Tolypothrix sp. PCC 7601, with bound canthaxanthin) (Tolypothrix sp. PCC 7601); assay: SEC; analytical SEC on a Superdex 75 column; masses estimated with protein molecular weight standards
[2] = target: holo-CCP2 (C-terminal domain-like carotenoid protein 2 from Tolypothrix sp. PCC 7601, with bound canthaxanthin) (Tolypothrix sp. PCC 7601); assay: SEC-MALS + other: SEC-SAXS; SEC-SAXS-MALS, Shodex KW802.5 column, 10 mM Na-phosphate pH 7.0, 100 mM NaCl, 20 °C; samples at 5 mg/mL (legend: apo tetramer sample 10 mg/mL); also run with reductant (5 mM TCEP)
[3] = target: apo-CCP2 (C-terminal domain-like carotenoid protein 2 from Tolypothrix sp. PCC 7601, without carotenoid) (Tolypothrix sp. PCC 7601); assay: SEC; analytical SEC on a Superdex 75 column; masses estimated with protein molecular weight standards
[4] = target: apo-CCP2 (C-terminal domain-like carotenoid protein 2 from Tolypothrix sp. PCC 7601, without carotenoid) (Tolypothrix sp. PCC 7601); assay: SEC-MALS + other: SEC-SAXS; SEC-SAXS-MALS, Shodex KW802.5 column, 10 mM Na-phosphate pH 7.0, 100 mM NaCl, 20 °C; samples at 5 mg/mL (legend: apo tetramer sample 10 mg/mL); also run with reductant (5 mM TCEP)

Row | stoichiometry N [1] | stoichiometry N [2] | stoichiometry N [3] | stoichiometry N [4] | Substance
1 | 2 and 4 | 2 and 4 | – | – | holo-CCP2 (C-terminal domain-like carotenoid protein 2 from Tolypothrix sp. PCC 7601, with bound canthaxanthin) (natural protein)
2 | – | – | 2 and 4 | 2 and 3 and 4 | apo-CCP2 (C-terminal domain-like carotenoid protein 2 from Tolypothrix sp. PCC 7601, without carotenoid) (natural protein)
